Assay results published in ChEMBL document CHEMBL4304758, “Development of Peptide-Based Sirtuin Defatty-Acylase Inhibitors Identified by the Fluorescence Probe, SFP3, That Can Efficiently Measure Defatty-Acylase Activity of Sirtuin” (J Med Chem, 2019).

How the values were obtained:
[1] = compound: CCCCCCCCCCCCCC(=S)NCCCC[C@H](NC(=O)[C@@H](NC(=O)[C@H](CCCNC(=N)N)NC(C)=O)[C@@H](C)CC)C(=O)N[C@@H](CCCNC(=N)N)C(=O)N[C@@H](Cc1ccc(O)cc1)C(N)=O; assay: Mixed-inhibition of recombinant human SIRT2 defatty-acylase activity assessed as substrate Km at 15 nM using varying levels of SFP3 as substrate measured at 1 min interval for 30 mins in presence of NAD+ by Michaelis-Menten plot analysis (reference value: 0.55 +/- 0.04 uM)
[2] = compound: CC[C@H](C)[C@H](NC(=O)[C@H](CCCNC(=N)N)NC(C)=O)C(=O)N[C@@H](CCCCNC(=O)Cc1ccc(/N=N/c2ccc(O)cc2)cc1)C(=O)N[C@@H](CCCNC(=N)N)C(=O)N[C@@H](Cc1ccc(O)cc1)C(N)=O; assay: as above
[3] = compound: CCCCCCCCCCCCCC(=S)NCCCC[C@H](NC(=O)[C@@H](NC(=O)[C@H](CCCNC(=N)N)NC(C)=O)[C@@H](C)CC)C(=O)N[C@@H](CCCNC(=N)N)C(=O)N[C@@H](Cc1ccc(O)cc1)C(N)=O; assay: Mixed-inhibition of recombinant human SIRT2 defatty-acylase activity assessed as substrate Km at 20 nM using varying levels of SFP3 as substrate measured at 1 min interval for 30 mins in presence of NAD+ by Michaelis-Menten plot analysis (reference value: 0.55 +/- 0.04 uM)
[4] = compound: CC[C@H](C)[C@H](NC(=O)[C@H](CCCNC(=N)N)NC(C)=O)C(=O)N[C@@H](CCCCNC(=O)Cc1ccc(/N=N/c2ccc(O)cc2)cc1)C(=O)N[C@@H](CCCNC(=N)N)C(=O)N[C@@H](Cc1ccc(O)cc1)C(N)=O; assay: as above
[5] = compound: CCCCCCCCCCCCCC(=S)NCCCC[C@H](NC(=O)[C@@H](NC(=O)[C@H](CCCNC(=N)N)NC(C)=O)[C@@H](C)CC)C(=O)N[C@@H](CCCNC(=N)N)C(=O)N[C@@H](Cc1ccc(O)cc1)C(N)=O; assay: Mixed-inhibition of recombinant human SIRT2 defatty-acylase activity assessed as substrate Km at 30 nM using varying levels of SFP3 as substrate measured at 1 min interval for 30 mins in presence of NAD+ by Michaelis-Menten plot analysis (reference value: 0.55 +/- 0.04 uM)
[6] = compound: CC[C@H](C)[C@H](NC(=O)[C@H](CCCNC(=N)N)NC(C)=O)C(=O)N[C@@H](CCCCNC(=O)Cc1ccc(/N=N/c2ccc(O)cc2)cc1)C(=O)N[C@@H](CCCNC(=N)N)C(=O)N[C@@H](Cc1ccc(O)cc1)C(N)=O; assay: as above

B1: NAD-dependent protein deacetylase sirtuin-2 (Homo sapiens), Q8IXJ6 (protein)
chain: MAEPDPSHPLETQAGKVQEAQDSDSDSEGGAAGGEADMDFLRNLFSQTLSLGSQKERLLDELTLEGVARYMQSERCRRVICLVGAGISTSAGIPDFRSPSTGLYDNLEKYHLPYPEAIFEISYFKKHPEPFFALAKELYPGQFKPTICHYFMRLLKDKGLLLRCYTQNIDTLERIAGLEQEDLVEAHGTFYTSHCVSASCRHEYPLSWMKEKIFSEVTPKCEDCQSLVKPDIVFFGESLPARFFSCMQSDFLKVDLLLVMGTSLQVQPFASLISKAPLSTPRLLINKEKAGQSDPFLGMIMGLGGGMDFDSKKAYRDVAWLGECDQGCLALAELLGWKKELEDLVRREHASIDAQSGAGVPNPSTSASPKKSPPPAKDEARTTEREKPQ
- Km [1]: 0.47 µM
- Km [2]: 0.76 µM
- Km [3]: 0.48 µM
- Km [4]: 1.1 µM
- Km [5]: 1.1 µM
- Km [6]: 2.5 µM
